Measured values reported in patent JP2006246896A.

Biological target: ヒトEGFレセプター(細胞表面に発現) (human) (UniProt P00533)
Test: cell ELISA on glutaraldehyde-fixed A431 cells, compared with chimeric C225

相対親和力 (relative to chimeric C225): 65%
B1: 再形成ヒトH225抗体(225RKA/225RHA) (antibody, V domains shown)
VH: EVQLVESGGGLVQPGGSLRLSCAVSGFSLTNYGVHWVRQATGKGLEWLGVIWSGGNTDYNTPFTSRLTISKENAKNSLYLQMNSLRAGDTAVYYCARALTYYDYEFAYWGQGTM
VL: EIVLTQSPATLSLSPGERATLSCRASQSIGTNIHWYQQRPGQAPRLLIKYASESISGIPARFSGSGSGTDFTLTISSLEPEDFAVYYCQQNNNWPTTFGGG
